Measurements reported in patent US20250333531A1 (NORDIC NANOVECTOR ASA, published 2025).
Substitutions are numbered along the chain they refer to. Names may count otherwise.

How the values were obtained:
[1] = molecular target: FcγRIIIa-V158 on Promega Jurkat effector cells (UniProt P08637 17-254, limits assumed); assay: cell-based or functional assay
human CD37 [2] = molecular target: T1, human CD37 (human, UniProt P11049 1-281); assay: reference to the competitive binding of Example 6
T1 construct: whole, on cells; also called CD37 antigen
T1 sequence (looked up): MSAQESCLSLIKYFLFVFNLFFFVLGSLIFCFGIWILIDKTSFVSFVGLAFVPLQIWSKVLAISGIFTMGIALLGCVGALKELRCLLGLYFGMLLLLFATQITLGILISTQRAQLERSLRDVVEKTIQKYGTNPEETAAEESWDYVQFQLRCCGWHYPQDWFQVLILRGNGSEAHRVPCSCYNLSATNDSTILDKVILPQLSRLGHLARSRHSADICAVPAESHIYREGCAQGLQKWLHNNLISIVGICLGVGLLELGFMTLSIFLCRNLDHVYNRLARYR

[3] = molecular target: T2, biotinylated soluble human FcRn (human, UniProt P55899 24-297; P61769 21-119, biotinylated); assay: ELISA: IgG coated at 1000-0.45 ng/ml, biotinylated soluble human FcRn 250 ng/ml pre-complexed with AP-streptavidin, pH 6.0, absorbance 405 nm
T2 construct: extracellular domain; Bought; Beta-2-microglobulin is not mentioned; Used as preformed complex with AP-streptavidin
T2 sequence (P55899 24-297 limits assumed, chain 1 of 2): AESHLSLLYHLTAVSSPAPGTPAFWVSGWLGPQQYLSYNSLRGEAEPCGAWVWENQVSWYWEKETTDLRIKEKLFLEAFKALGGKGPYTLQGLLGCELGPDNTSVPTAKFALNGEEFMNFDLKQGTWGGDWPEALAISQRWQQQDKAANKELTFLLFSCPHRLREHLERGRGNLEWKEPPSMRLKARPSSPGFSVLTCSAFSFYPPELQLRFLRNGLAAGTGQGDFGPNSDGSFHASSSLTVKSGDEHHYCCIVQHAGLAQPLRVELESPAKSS
T2 sequence (P61769 21-119 limits assumed, chain 2 of 2): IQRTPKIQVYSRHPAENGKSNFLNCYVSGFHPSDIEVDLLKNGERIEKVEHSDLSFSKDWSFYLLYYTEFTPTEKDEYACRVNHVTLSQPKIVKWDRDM
Method: (§1) Remaining surface area were blocked with PBS containing 0.05% T and 4% S for 1 h at RT. The plates were washed four times with PBS/T using a Hydrospeed™ plate washer (Tecan). […] Following washing as above with PBS/T or FcRn binding buffer (67 nM phosphate, 0.1 M NaCl, 0.05% T, pH 6.0), bound receptor was visualized by addition of phosphatase substrate (1 mg/ml in diethanolamine buffer) (Sigma Aldrich). The plates were developed for 20-30 min before the 405 nm absorption values were recorded using a TECAN Sunrise spectrophotometer (Tecan).

[4] = molecular target: T3, biotinylated truncated soluble human FcγRI (human, UniProt P12314 16-292, biotinylated); assay: ELISA: IgG coated at 10000-4.5 ng/ml, biotinylated truncated soluble human FcγRI 250 ng/ml pre-complexed with AP-streptavidin, absorbance 405 nm
T3 construct: extracellular domain; Bought; preformed complex with AP-streptavidin
T3 sequence (P12314 16-292): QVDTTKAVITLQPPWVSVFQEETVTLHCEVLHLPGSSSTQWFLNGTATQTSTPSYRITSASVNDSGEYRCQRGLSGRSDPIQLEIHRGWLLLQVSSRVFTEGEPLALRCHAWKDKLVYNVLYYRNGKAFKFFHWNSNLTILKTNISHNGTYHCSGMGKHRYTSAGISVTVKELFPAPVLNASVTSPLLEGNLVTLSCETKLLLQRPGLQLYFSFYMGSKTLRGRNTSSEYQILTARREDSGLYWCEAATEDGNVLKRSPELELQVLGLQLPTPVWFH
Method: as §1, with “96 well EIA/RIA plates (CorningCostar) were coated with 100 μl titrated amounts of IgG variants (10.000-4.5 ng/ml) diluted in PBS and incubated O/N at 4° C. Remaining” for “Remaining”, “above,” for “above with PBS/T or FcRn binding buffer (67 nM phosphate, 0.1 M NaCl, 0.05% T, pH 6.0),”, “15-20” for “20-30”

[5] = molecular target: T4, biotinylated truncated soluble human FcγRIIb (human, UniProt P31994 43-217, biotinylated); assay: ELISA: IgG coated at 10000-4.5 ng/ml, biotinylated truncated soluble human FcγRIIb 250 ng/ml pre-complexed with AP-streptavidin, absorbance 405 nm
T4 construct: extracellular domain; Bought
T4 sequence (looked up): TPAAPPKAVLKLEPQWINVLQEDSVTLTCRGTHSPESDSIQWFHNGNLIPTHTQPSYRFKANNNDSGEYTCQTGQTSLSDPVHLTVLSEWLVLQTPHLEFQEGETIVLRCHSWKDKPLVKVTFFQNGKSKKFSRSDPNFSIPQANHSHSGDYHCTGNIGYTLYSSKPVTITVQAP
Method: as §1, with “96 well EIA/RIA plates (CorningCostar) were coated with 100 μl titrated amounts of IgG variants (10.000-4.5 ng/ml) diluted in PBS and incubated O/N at 4° C. Remaining” for “Remaining”, “above,” for “above with PBS/T or FcRn binding buffer (67 nM phosphate, 0.1 M NaCl, 0.05% T, pH 6.0),”, “15-20” for “20-30”

[6] = molecular target: T5, human complement factor C1q (human, UniProt P02745 23-245; P02746 28-253; P02747 29-245); assay: ELISA: IgG coated at 20000-156.25 ng/ml, human C1q 360 ng/ml, detected with rabbit anti-human C1q and HRP anti-rabbit IgG (y axis printed as Absorbance 405 nm)
T5 construct: Bought
T5 sequence (P02745 23-245 limits assumed, chain 1 of 3): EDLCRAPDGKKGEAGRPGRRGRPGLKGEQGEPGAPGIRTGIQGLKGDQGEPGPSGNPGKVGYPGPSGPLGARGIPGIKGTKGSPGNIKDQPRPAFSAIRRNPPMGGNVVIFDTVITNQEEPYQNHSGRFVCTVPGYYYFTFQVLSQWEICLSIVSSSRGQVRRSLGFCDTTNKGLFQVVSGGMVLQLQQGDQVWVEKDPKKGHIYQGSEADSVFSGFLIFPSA
T5 sequence (P02746 28-253 limits assumed, chain 2 of 3): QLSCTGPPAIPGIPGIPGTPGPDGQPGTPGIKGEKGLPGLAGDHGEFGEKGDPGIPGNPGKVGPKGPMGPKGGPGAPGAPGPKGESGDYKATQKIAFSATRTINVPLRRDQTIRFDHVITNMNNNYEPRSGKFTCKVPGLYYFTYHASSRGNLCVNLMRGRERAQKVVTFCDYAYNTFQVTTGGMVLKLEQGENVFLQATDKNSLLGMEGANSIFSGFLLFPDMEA
T5 sequence (P02747 29-245 limits assumed, chain 3 of 3): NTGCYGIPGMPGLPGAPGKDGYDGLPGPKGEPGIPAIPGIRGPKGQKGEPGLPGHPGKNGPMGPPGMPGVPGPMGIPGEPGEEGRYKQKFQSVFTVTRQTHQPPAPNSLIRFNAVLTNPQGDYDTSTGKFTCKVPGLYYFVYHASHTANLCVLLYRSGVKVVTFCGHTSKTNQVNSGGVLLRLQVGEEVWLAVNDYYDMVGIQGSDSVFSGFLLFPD
Method: (§2) Remaining surface area were blocked with PBS containing 0.05% T and 4% S for 1 h at RT. The plates were then washed four times with PBS/T using a Hydrospeed™ plate washer (Tecan). Human C1q (Complement Technologies) diluted to 360 ng/ml in veronal buffer (Complement Technologies) were added and incubated for 30 min at 37° C. Detection of bound C1q was performed using a primary anti-human C1q antibody from rabbit (DAKO) diluted 1:10.000 in PBS/T/S and a secondary horseradish peroxidase (HRP) conjugated anti-rabbit IgG antibody diluted 1:5000 in PBS/T/S (GE Healthcare). Binding was visualized by addition of 100 μl TMB substrate (Calbiochem) for 15-20 min before the enzymatic reaction was stopped by addition of 50 μl 1 M HC1. The 450 nm absorption values were recorded using a Sunrise TECAN spectrophotometer (Tecan).

[7] = molecular target: T6, biotinylated truncated soluble human FcγRIIIb (human, UniProt O75015 17-200, limits assumed, biotinylated); assay: ELISA: IgG coated at 10000-4.5 ng/ml, biotinylated truncated soluble human FcγRIIIb 250 ng/ml pre-complexed with AP-streptavidin, absorbance 405 nm
T6 construct: extracellular domain; Bought
T6 sequence (O75015 17-200 limits assumed): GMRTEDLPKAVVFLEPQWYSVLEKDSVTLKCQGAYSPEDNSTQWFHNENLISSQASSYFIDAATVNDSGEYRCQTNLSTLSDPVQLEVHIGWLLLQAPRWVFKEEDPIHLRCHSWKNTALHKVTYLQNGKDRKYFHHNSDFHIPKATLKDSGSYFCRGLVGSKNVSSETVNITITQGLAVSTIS
Method: as §1, with “96 well EIA/RIA plates (CorningCostar) were coated with 100 μl titrated amounts of IgG variants (10.000-4.5 ng/ml) diluted in PBS and incubated O/N at 4° C. Remaining” for “Remaining”, “above,” for “above with PBS/T or FcRn binding buffer (67 nM phosphate, 0.1 M NaCl, 0.05% T, pH 6.0),”, “15-20” for “20-30”

[8] = molecular target: T5, human complement factor C1q; assay: repeat ELISA: IgG coated at 20000-156.25 ng/ml, human C1q 360 ng/ml, detected with rabbit anti-human C1q and HRP anti-rabbit IgG (y axis printed as Absorbance 405 nm)
Method: as §2

[9] = molecular target: T7, biotinylated truncated soluble human FcγRIIa-H131 (human, UniProt P12318 34-217, biotinylated); assay: ELISA: IgG coated at 10000-4.5 ng/ml, biotinylated truncated soluble human FcγRIIa-H131 250 ng/ml pre-complexed with AP-streptavidin, absorbance 405 nm
T7 construct: extracellular domain; Bought
T7 sequence (looked up): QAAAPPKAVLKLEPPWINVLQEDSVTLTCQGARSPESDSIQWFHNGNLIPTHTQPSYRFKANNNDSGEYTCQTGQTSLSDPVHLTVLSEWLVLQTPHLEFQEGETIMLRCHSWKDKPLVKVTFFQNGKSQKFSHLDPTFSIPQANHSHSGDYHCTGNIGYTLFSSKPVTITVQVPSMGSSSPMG
Method: as §1, with “96 well EIA/RIA plates (CorningCostar) were coated with 100 μl titrated amounts of IgG variants (10.000-4.5 ng/ml) diluted in PBS and incubated O/N at 4° C. Remaining” for “Remaining”, “above,” for “above with PBS/T or FcRn binding buffer (67 nM phosphate, 0.1 M NaCl, 0.05% T, pH 6.0),”, “15-20” for “20-30”

[10] = molecular target: T8, biotinylated truncated soluble human FcγRIIa-R131 (human, UniProt P12318 34-217, biotinylated); assay: ELISA: IgG coated at 10000-4.5 ng/ml, biotinylated truncated soluble human FcγRIIa-R131 250 ng/ml pre-complexed with AP-streptavidin, absorbance 405 nm
T8 construct: extracellular domain; Bought
T8 sequence (looked up): T7 sequence (looked up) with H134R
Method: as §1, with “96 well EIA/RIA plates (CorningCostar) were coated with 100 μl titrated amounts of IgG variants (10.000-4.5 ng/ml) diluted in PBS and incubated O/N at 4° C. Remaining” for “Remaining”, “above,” for “above with PBS/T or FcRn binding buffer (67 nM phosphate, 0.1 M NaCl, 0.05% T, pH 6.0),”, “15-20” for “20-30”

[11] = molecular target: T9, biotinylated truncated soluble human FcγRIIIa-F158 (human, UniProt P08637 17-208, biotinylated); assay: ELISA: IgG coated at 10000-4.5 ng/ml, biotinylated truncated soluble human FcγRIIIa-F158 250 ng/ml pre-complexed with AP-streptavidin, absorbance 405 nm
T9 construct: extracellular domain; Bought
Method: as §1, with “96 well EIA/RIA plates (CorningCostar) were coated with 100 μl titrated amounts of IgG variants (10.000-4.5 ng/ml) diluted in PBS and incubated O/N at 4° C. Remaining” for “Remaining”, “above,” for “above with PBS/T or FcRn binding buffer (67 nM phosphate, 0.1 M NaCl, 0.05% T, pH 6.0),”, “15-20” for “20-30”

[12] = molecular target: T10, biotinylated truncated soluble human FcγRIIIa-V158 (human, UniProt P08637 17-208, biotinylated); assay: ELISA: IgG coated at 10000-4.5 ng/ml, biotinylated truncated soluble human FcγRIIIa-V158 250 ng/ml pre-complexed with AP-streptavidin, absorbance 405 nm
T10 construct: extracellular domain; Bought
Method: as §1, with “96 well EIA/RIA plates (CorningCostar) were coated with 100 μl titrated amounts of IgG variants (10.000-4.5 ng/ml) diluted in PBS and incubated O/N at 4° C. Remaining” for “Remaining”, “above,” for “above with PBS/T or FcRn binding buffer (67 nM phosphate, 0.1 M NaCl, 0.05% T, pH 6.0),”, “15-20” for “20-30”

human CD37 [13] = molecular target: T1, human CD37; assay: competitive radioligand binding on Ramos cells; ratio to Ki of NNV009 (assumed 2.3)
Method: (§3) The Eppendorf LoBind tubes 1.5 mL were used to prepare dilutions (working concentrations) of Abs. As much as 0.2 mL of the cell suspension (800 000 cells/tube), after it has been cooled down for 30 min on ice, was aliquoted to glass 12×75 mm counting tubes. Each tube was pre-labeled with a code specifically determining each sample. The tubes with cells were maintained on ice for whole time course of the experiment except for the time when counted on the gamma counter. The tubes were agitated on a planetary shaker at 350 RPM, 4° C. (on ice) for 15 min. […] The tubes were placed on the planetary shaker (GL 064), on ice, and shaken for 4 hours at 350 RPM. After 3.5 hours past from the beginning of incubation, the samples were assayed on Wizard2 gamma counter using protocol “Lu-177 General” (all detectors except for the detector #3 were used). Upon completion the counting, the cells were washed with ice-cold 0.5 mL 0.5% BSAPBS three times. All the tubes were assayed on the Wizard2 gamma counter again using the same sequence and parameters as before the washing.

human CD37 [14] = molecular target: T1, human CD37; assay: competitive radioligand binding on Ramos cells against 177Lu-NNV009 (2.7 nM), gamma counting
Method: as §3

human CD37 [15] = molecular target: T1, human CD37; assay: competitive radioligand binding on Ramos cells; lower end tied by Table 18 to AH02871HC + AH02877LC + V110D

B1: NNV024 (antibody, human IgG1)
heavy: not shown
light: DIQMTQSPSSLSASVGDRVTITCKASQDVSTAVDWYQQKPGKSPKLLINWASTRHTGVPSRFSGSGSGTDYTLTISSLQPEDFATYYCRQHYSTPFTFGQGTKLEIKRTDAAPSVFIFPPSDEQLKSGTASVVCLLNNFYPREAKVQWKVDNALQSGNSQESVTEQDSKDSTYSLSSTLTLSKADYEKHKVYACEVTHQGLSSPVTKSFNRGEC
modifications: afucosylated N-glycan (GlymaxX technology)
notes: Humanized IgG1 kappa, same chains as NNV023, afucosylated; also called afucosylated NNV023; AH02871HC_2877LC-110D GlymaxX
ADCC signaling at 1 µg/mL relative to obinutuzumab, patient-derived CLL cells [1]: ~3 fold
average Emax relative to rituximab, ADCC FcγRIIIa-158V reporter assay, ten B-NHL cell lines [1]: 1.36 fold
average potency (EC50) relative to rituximab, ADCC FcγRIIIa-158V reporter assay [1]: 35.5 fold
average potency of the ADCC response (Example 13) [1]: 0.6 nM
binding result (human CD37 [2]): binds
EC50 (read off the curve) [3]: ~0.04 µg/mL
EC50 (read off the curve) [4]: ~0.4 µg/mL
EC50 (read off the curve) [5]: ~0.7 µg/mL
EC50 (read off the curve) [6]: ~3 µg/mL
EC50 (read off the curve) [7]: ~0.4 µg/mL
EC50 (read off the curve) [8]: ~2 µg/mL
EC50 (read off the curve) [9]: ~0.3 µg/mL
EC50 (read off the curve) [10]: ~0.8 µg/mL
EC50 (read off the curve) [11]: ~0.2 µg/mL
EC50 (read off the curve) [12]: ~0.6 µg/mL

B2: NNV023 (antibody, human IgG1)
heavy: not shown
light: B1 light
notes: Humanized IgG1 kappa, fucosylated; also called AH02871HC + AH02877LC + V110D; AH02871HC_2877LC-110D
average potency of the ADCC response (Example 13) [1]: 3 nM
efficacy (Emax) relative to NNV024, ADCC FcγRIIIa-158V reporter assay [1]: 75%
potency (EC50) relative to rituximab, ADCC FcγRIIIa-158V reporter assay [1]: ~7 fold
Ki(NNV009)/Ki(NNV020 var.) (human CD37 [13]): 4.03 fold
EC50 (human CD37 [14]): 1.24 nM
Ki (human CD37 [14]): 0.571 nM
fold affinity relative to NNV009 (human CD37 [15]): 4 to 7 fold
